Reference: IntAct's records for PubMed 16461343

B1: Tyrosine-protein phosphatase non-receptor type 22 (Homo sapiens), Q9Y2R2 (parent)
chain: MDQREILQKFLDEAQSKKITKEEFANEFLKLKRQSTKYKADKTYPTTVAEKPKNIKKNRYKDILPYDYSRVELSLITSDEDSSYINANFIKGVYGPKAYIATQGPLSTTLLDFWRMIWEYSVLIIVMACMEYEMGKKKCERYWAEPGEMQLEFGPFSVSCEAEKRKSDYIIRTLKVKFNSETRTIYQFHYKNWPDHDVPSSIDPILELIWDVRCYQEDDSVPICIHCSAGCGRTGVICAIDYTWMLLKDGIIPENFSVFSLIREMRTQRPSLVQTQEQYELVYNAVLELFKRQMDVIRDKHSGTESQAKHCIPEKNHTLQADSYSPNLPKSTTKAAKMMNQQRTKMEIKESSSFDFRTSEISAKEELVLHPAKSSTSFDFLELNYSFDKNADTTMKWQTKAFPIVGEPLQKHQSLDLGSLLFEGCSNSKPVNAAGRYFNSKVPITRTKSTPFELIQQRETKEVDSKENFSYLESQPHDSCFVEMQAQKVMHVSSAELNYSLPYDSKHQIRNASNVKHHDSSALGVYSYIPLVENPYFSSWPPSGTSSKMSLDLPEKQDGTVFPSSLLPTSSTSLFSYYNSHDSLSLNSPTNISSLLNQESAVLATAPRIDDEIPPPLPVRTPESFIVVEEAGEFSPNVPKSLSSAVKVKIGTSLEWGGTSEPKKFDDSVILRPSKSVKLRSPKSELHQDRSSPPPPLPERTLESFFLADEDCMQAQSIETYSTSYPDTMENSTSSKQTLKTPGKSFTRSKSLKILRNMKKSICNSCPPNKPAESVQSNNSSSFLNFGFANRFSKPKGPRNPPPTWNI

Key:
lck_human LCK, P06239 = variants of: B1; conditions: with lck_human LCK
Sequence of lck_human LCK, P06239 (P06239 whole entry, looked up): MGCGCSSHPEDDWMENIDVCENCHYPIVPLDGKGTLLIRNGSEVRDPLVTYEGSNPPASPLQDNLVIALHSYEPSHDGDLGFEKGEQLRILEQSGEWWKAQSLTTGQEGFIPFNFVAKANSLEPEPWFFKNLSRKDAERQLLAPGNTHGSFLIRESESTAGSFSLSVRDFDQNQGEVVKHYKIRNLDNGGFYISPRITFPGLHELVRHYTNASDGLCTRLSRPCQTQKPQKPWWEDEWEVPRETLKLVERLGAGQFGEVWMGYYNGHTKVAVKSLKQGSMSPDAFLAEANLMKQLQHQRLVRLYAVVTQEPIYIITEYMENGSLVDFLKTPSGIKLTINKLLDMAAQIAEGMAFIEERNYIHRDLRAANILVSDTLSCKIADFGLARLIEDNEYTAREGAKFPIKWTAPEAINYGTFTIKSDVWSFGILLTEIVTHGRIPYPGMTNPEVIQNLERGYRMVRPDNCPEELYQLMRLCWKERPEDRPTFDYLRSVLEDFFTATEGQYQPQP

[1] = variants of: B1; conditions: with zap70_human ZAP70, P43403
Sequence of zap70_human ZAP70, P43403 (P43403 whole entry): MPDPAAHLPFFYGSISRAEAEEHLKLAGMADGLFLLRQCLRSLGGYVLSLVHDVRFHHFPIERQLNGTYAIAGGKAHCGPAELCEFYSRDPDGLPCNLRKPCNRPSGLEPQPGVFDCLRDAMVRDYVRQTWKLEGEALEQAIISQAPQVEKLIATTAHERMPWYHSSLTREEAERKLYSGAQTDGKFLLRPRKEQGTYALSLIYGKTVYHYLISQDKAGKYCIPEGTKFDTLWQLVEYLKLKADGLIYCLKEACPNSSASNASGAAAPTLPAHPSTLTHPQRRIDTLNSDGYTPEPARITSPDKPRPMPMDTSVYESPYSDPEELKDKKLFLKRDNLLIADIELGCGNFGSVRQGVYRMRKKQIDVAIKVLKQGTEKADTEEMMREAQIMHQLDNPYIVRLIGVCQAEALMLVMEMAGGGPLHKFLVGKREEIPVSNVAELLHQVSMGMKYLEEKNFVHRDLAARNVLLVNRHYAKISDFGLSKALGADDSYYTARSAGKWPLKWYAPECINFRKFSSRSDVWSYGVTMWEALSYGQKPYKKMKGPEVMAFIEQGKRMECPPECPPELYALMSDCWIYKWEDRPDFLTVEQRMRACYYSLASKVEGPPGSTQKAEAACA

cd3z_human CD247, P20963 = variants of: B1; conditions: with cd3z_human CD247, P20963
Sequence of cd3z_human CD247, P20963 (P20963 whole entry): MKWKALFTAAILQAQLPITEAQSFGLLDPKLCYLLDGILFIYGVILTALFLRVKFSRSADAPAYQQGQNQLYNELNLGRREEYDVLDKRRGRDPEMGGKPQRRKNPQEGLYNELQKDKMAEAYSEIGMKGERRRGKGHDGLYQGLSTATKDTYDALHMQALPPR

Measured: effect of a mutation on the interaction

D195A
increasing interaction: all assays above

C227S
increasing interaction: all assays above
